Test results: patent US20110091460A1

Biological target: interleukin 13 receptor (IL13R) (human)
Assay: cell-based or functional assay

## DTIL13 (ligand)
  IC50, inhibition of Calu-3 cell growth (3H-thymidine proliferation assay, 72 h): 3.1 nM
  IC50, inhibition of HT-29 cell growth (3H-thymidine proliferation assay, 72 h): 95 nM
  IC50, inhibition of PC-3 cell growth (3H-leucine proliferation assay, 72 h): 0.038 nM
  IC50, killing of DU-145 cells (3H-thymidine proliferation assay, 72 h): > 100 nM
  IC50, killing of U87 MG cells (3H-thymidine proliferation assay, 72 h): 10 nM
  IC50, killing of U118 cells (3H-thymidine proliferation assay, 72 h): 2 nM
